Results published in the supplement of paper PMC7125110.
± gives the standard error. Fewer inactive variants are shown than the library holds.

B1: glmS ribozyme (parent)
chain: AUAAAAGCGCCAGAACUACAGAAAUGUAGUUGACGAGGAGGAGGUUUAUCGAAUUUUCGGCGGAUGCCUCCAAA

Key:
Details in all cases: with glucosamine-6-phosphate
[1] = variants of: B1; assay: self-cleavage kobs at 640 uM GlcN6P; higher = faster cleavage; RNA array
Procedure, shortened: (§1)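 Glucosamine-6-phosphate (40 μM to 10 mM) in HEPES/KCl/Mg(OAc)2 buffer was flowed over sequenced MiSeq chips, and tiles were imaged over ~14 h. Barcoded ribozyme variants there had been transcribed in situ by E. coli RNA polymerase and were tracked through a hybridised Cy3 probe at 37 °C. One- or two-exponential decay fits to per-tile medians, normalised to baseline and to non-cleaving reference variants, gave kobs. kcat and KM came from weighted Michaelis–Menten fits across concentrations.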

[2] = variants of: B1; assay: self-cleavage kobs at 2500 uM GlcN6P; higher = faster cleavage; RNA array
Procedure, shortened: as §1

[3] = variants of: B1; assay: self-cleavage kobs at 10000 uM GlcN6P; higher = faster cleavage; RNA array
Procedure, shortened: as §1

| Variant | self-cleavage kobs at 640 uM GlcN6P [1] [s⁻¹] | self-cleavage kobs at 2500 uM GlcN6P [2] [s⁻¹] | self-cleavage kobs at 10000 uM GlcN6P [3] [s⁻¹] |
| --- | --- | --- | --- |
| C10U A39U G41U | < 1e-05 | – | – |
| G9U G29C G41A | < 1e-05 | < 1e-05 | < 1e-05 |
| C10U C50G C68U C71A | 9.29e-05 ± 2.6e-05 | 0.000111 ± 2.9e-05 | – |
| C10A G51C A52U C70U | < 1e-05 | – | – |
| G9C U30A U49C U56G | < 1e-05 | – | – |
| C8A G32A G66U | < 1e-05 | – | – |
| C11G G35C A52U | < 1e-05 | – | – |
| C10U U47G G51U U57C C58G A64U | < 1e-05 | – | – |
| C8G G59U G66U | < 1e-05 | – | – |
| C8G G43A C67A | < 1e-05 | – | – |
| C10U A36U G41A | < 1e-05 | < 1e-05 | – |
| G9C G41U G44C | < 1e-05 | – | – |
| C11U G41C U54G G59C | < 1e-05 | – | – |
| C10G G13A G43A C50U | < 1e-05 | < 1e-05 | < 1e-05 |
| C11U G29U G37C C70A | 0.000166 ± 5.6e-05 | – | – |
| G9U G32C C34G C58U C68G | 0.000182 ± 7.9e-05 | – | – |
| C10U G35C G62C | < 1e-05 | < 1e-05 | – |
| C8G U55C C71A | < 1e-05 | < 1e-05 | – |
| C10U G60A C67A | < 1e-05 | – | – |
| C10U G35U G51A | < 1e-05 | – | – |
| A12C A14C A48U G60A | < 1e-05 | – | – |
| G9U G35C A42U U45A C70A | < 1e-05 | – | – |
| C8G G32C A33U C67U | < 1e-05 | < 1e-05 | – |

| Variant | self-cleavage kobs at 640 uM GlcN6P [1] [s⁻¹] | self-cleavage kobs at 2500 uM GlcN6P [2] [s⁻¹] | self-cleavage kobs at 10000 uM GlcN6P [3] [s⁻¹] |
| --- | --- | --- | --- |
| C8U A15U A48C A52C C70U | < 1e-05 | – | – |
| A12C A14G C34G G38U U49G A64G | < 1e-05 | < 1e-05 | – |
| C11A G32A G66U | < 1e-05 | – | – |
| C8G C16G G38A | < 1e-05 | – | – |
| G9C A12C | < 1e-05 | < 1e-05 | < 1e-05 |
| G7U U49G G51C A64C G66C | < 1e-05 | < 1e-05 | – |
| G9C G29C A52U C70U | < 1e-05 | < 1e-05 | < 1e-05 |
| C8U G37U C71G | 0.000584 ± 0.00027 | – | – |
| C10G C11A U31C G35C C70G | 0.00013 ± 6.3e-05 | – | – |
| C10A G43C A53U | < 1e-05 | < 1e-05 | – |
| C8G U31G C50G | 7.77e-05 ± 3.6e-05 | – | – |
| A12C A52U U57A | 0.000131 ± 2.7e-05 | 0.000458 ± 5.1e-05 | – |
| C8A G9A A15G A48C U57A G60A | < 1e-05 | – | – |
| G9A A42C G44A | < 1e-05 | < 1e-05 | – |
| C8G G43A | < 1e-05 | < 1e-05 | – |
| C8U A15C G35C C68U | < 1e-05 | – | – |
| G9U U30C U65G C70U | < 1e-05 | – | – |
| C8A U55G A64U | < 1e-05 | < 1e-05 | – |
| C11U A33U A53C | < 1e-05 | – | – |
| C8U G40C C71U | < 1e-05 | < 1e-05 | – |
| C11U C16A U30A G32C U69G | 0.000926 ± 0.00019 | – | – |
| G9C C10G A14G G41U A64C | < 1e-05 | < 1e-05 | – |
| C10U A33G U54A | < 1e-05 | – | – |

| Variant | self-cleavage kobs at 640 uM GlcN6P [1] [s⁻¹] | self-cleavage kobs at 2500 uM GlcN6P [2] [s⁻¹] | self-cleavage kobs at 10000 uM GlcN6P [3] [s⁻¹] |
| --- | --- | --- | --- |
| C8A C11A G44A | < 1e-05 | – | – |
| C8G A36G A39U G43U | < 1e-05 | < 1e-05 | – |
| G9U A14C A53U G62A C67G | < 1e-05 | < 1e-05 | – |
| G9U C61A C70G | 4.55e-05 ± 2.1e-05 | – | – |
| C8U C16G A52U U65G G66A | < 1e-05 | < 1e-05 | – |
| G9A G35A C58U C71U | < 1e-05 | – | – |
| C11A A39G | 0.000101 ± 2.7e-05 | 0.000121 ± 2.7e-05 | 0.000422 ± 7.8e-05 |
| C8A G35U C70G | 0.000526 ± 0.0002 | – | 7.27e-05 ± 2.4e-05 |
| C10U A15C G43U G63U | < 1e-05 | < 1e-05 | – |
| C10U G32C G35A | < 1e-05 | < 1e-05 | – |
| G9U G32C A42G U45G | < 1e-05 | < 1e-05 | – |
| C8A U30C G51U | < 1e-05 | – | – |
| G9U C19A G62U G63U | < 1e-05 | – | – |
| C8G C11G A14C A39G C50G | 8.19e-05 ± 2.8e-05 | – | – |
| G9U C10U C11A | < 1e-05 | – | – |
| G9C A64U | < 1e-05 | – | – |
| C11U A36C A39G C67G | < 1e-05 | < 1e-05 | – |
| C8A A15U A48C | < 1e-05 | – | – |
| C8U U30A A39U | < 1e-05 | < 1e-05 | – |
| G9A U45C A53U G60C | < 1e-05 | – | – |
| C11A G63A | < 1e-05 | < 1e-05 | < 1e-05 |
| C8G G32U G40A G44C C58U | < 1e-05 | < 1e-05 | – |
